These results are taken from paper PMC3258846 (Molecular Cell, 2011).

One experiment concerns the target GST-ASCC3-B (human, UniProt Q8N3C0 401-1300). Briefly: pull-down.
A further experiment addresses GST-ASCC3-C (human, UniProt Q8N3C0 1301-2202). Kind of experiment: pull-down.

Chain of GST-ASCC3-B (Q8N3C0 401-1300): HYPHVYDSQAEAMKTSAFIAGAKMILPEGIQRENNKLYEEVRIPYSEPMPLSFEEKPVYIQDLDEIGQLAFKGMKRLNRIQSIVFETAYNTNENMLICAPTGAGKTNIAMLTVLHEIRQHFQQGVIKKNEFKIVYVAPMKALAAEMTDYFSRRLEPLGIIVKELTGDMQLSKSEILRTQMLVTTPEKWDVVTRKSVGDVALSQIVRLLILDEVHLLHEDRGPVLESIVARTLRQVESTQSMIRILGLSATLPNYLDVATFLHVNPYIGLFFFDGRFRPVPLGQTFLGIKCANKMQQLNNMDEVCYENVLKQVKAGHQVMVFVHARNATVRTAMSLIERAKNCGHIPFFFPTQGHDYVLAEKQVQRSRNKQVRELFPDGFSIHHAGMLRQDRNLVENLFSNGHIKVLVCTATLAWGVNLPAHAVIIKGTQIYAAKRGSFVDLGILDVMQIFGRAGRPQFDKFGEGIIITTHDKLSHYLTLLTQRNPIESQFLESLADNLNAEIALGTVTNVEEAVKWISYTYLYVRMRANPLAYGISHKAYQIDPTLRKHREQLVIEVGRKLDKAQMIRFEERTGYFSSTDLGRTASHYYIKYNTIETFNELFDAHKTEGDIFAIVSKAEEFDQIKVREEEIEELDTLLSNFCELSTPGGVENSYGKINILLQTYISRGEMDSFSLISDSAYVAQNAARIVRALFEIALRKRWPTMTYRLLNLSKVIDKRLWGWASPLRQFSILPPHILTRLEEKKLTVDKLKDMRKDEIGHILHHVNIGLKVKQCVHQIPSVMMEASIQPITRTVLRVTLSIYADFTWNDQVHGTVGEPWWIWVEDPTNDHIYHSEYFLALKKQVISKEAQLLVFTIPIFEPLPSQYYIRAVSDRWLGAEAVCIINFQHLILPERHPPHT
Chain of GST-ASCC3-C (Q8N3C0 1301-2202): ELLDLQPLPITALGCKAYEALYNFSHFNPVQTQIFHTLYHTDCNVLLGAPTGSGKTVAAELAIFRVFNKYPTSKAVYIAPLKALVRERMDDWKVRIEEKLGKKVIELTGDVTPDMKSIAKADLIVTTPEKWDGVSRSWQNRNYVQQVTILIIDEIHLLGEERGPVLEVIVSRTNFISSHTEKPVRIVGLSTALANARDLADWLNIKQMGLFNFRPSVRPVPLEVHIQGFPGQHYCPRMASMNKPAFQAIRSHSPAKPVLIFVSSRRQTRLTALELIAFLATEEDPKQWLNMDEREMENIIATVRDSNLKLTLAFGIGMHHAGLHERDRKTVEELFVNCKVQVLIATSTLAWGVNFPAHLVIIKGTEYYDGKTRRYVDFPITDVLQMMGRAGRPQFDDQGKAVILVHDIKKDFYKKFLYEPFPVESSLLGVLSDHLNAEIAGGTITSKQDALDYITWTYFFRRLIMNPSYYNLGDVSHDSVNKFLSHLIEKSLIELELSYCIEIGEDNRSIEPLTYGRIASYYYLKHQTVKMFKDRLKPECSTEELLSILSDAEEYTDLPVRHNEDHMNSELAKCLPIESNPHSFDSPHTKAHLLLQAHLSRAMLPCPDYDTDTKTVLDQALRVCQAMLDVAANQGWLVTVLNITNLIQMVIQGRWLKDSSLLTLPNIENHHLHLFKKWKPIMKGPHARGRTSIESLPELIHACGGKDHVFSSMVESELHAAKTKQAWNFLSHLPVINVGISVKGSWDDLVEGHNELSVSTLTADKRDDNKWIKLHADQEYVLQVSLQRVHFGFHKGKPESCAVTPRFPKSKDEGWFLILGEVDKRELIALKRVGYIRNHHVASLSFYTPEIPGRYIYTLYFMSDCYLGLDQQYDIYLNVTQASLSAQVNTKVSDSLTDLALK

B1: His6-ALKBH3 (enzyme, human, UniProt Q96Q83 1-286, looked up)
chain: MEEKRRRARVQGAWAAPVKSQAIAQPATTAKSHLHQKPGQTWKNKEHHLSDREFVFKEPQQVVRRAPEPRVIDREGVYEISLSPTGVSRVCLYPGFVDVKEADWILEQLCQDVPWKQRTGIREDITYQQPRLTAWYGELPYTYSRITMEPNPHWHPVLRTLKNRIEENTGHTFNSLLCNLYRNEKDSVDWHSDDEPSLGRCPIIASLSFGATRTFEMRKKPPPEENGDYTYVERVKIPLDHGTLLIMEGATQADWQHRVPKEYHSREPRVNLTFRTVYPDPRGAPW
For the molecule B1, the binding result with GST-ASCC3-B and in the experiment with GST-ASCC3-C was “binds” throughout.
